Assay results as given in publication PMC9763686 (The Journal of Biological Chemistry, 2022).

B1: H9N2-NP-Nb53-HRP (VHH)
VHH: ESGGGSVQAGGSLRLSCAASGYTFSNVYMGWFRQAPGKEREGVAAIDRDGRTTYGDSVKGRFTISQDNAKNILYLQMSSLKPEDTATYYCAADPGYVELISEPLAGIWYRYWGQGTQVTVSS
B2: H9N2-NP-Nb16-HRP (VHH)
VHH: ESGGGSVQAGGSLRLSCAASGYTYSAYCMGWFRQAPGKEREEVASIDSDFGTNYADSVKGRFTISKDNPKNTLYLQMNNLKAEDTAMYYCAALKYSSSLCLDALPSRANYWGQGTQVTVSS
B3: H9N2-NP-Nb18-HRP (VHH)
VHH: ESGGGSVQAGGSLRLSCAASHTYGTYAMAWFRQAPGEEREGVAAIDSDGETIYADSVKGRFTISRDNAKNILYLQMNSLKPEDTAMYYCAEDLRGVWYGRLELRPGRFTYWGQGTQVTVSS
B4: H9N2-NP-Nb5-HRP (VHH)
VHH: ESGGGLVQPGGSLRLSCAASGFPFSDYDMNWARQAPGKELEDVSAISSGGTYTYYADSVKGRFTISRDNAKNTLYLQLNSLQTEDTAMYYCGRGWTSGYKSRGQGTQVTVSS
B5: H9N2-NP-Nb42-HRP (VHH)
VHH: ESGGESVQAGGSLRLSCATSGFTYNRSYCMAWFRQVLGKEREGVAVIDRVGGSTYYADSVKGRFTVSQDNAKTTLYLQMNSLTPEDTAMYYCAAVSTLMTTCQGLLAGHSQRYAYWGQGTQVTVSS

How the values were obtained:
Assay in all cases: ELISA
Conditions in all cases: one partner purified
[1] = molecular target: H1N1-NP (nucleoprotein of A/Guangzhou/01/2009 (H1N1)) (Influenza A virus A/Guangzhou/01/2009 …, UniProt C3W5S2, strain)
[2] = molecular target: IBV-NP (nucleoprotein of influenza B virus B/Yamagata/16/1988) (Influenza B virus B/Yamagata/16/1988, UniProt Q82662, strain)
[3] = molecular target: H9N2-NP fragment 1 to 1308 bp (N436 amino acids) (Influenza A virus …, UniProt W5RGA6)
[4] = molecular target: H9N2-NP fragment 1 to 1182 bp (N394 amino acids) (Influenza A virus …, UniProt W5RGA6)
[5] = molecular target: H9N2-NP fragment 1 to 1167 bp (N389 amino acids) (Influenza A virus …, UniProt W5RGA6)
[6] = molecular target: H9N2-NP fragment 1 to 1215 bp (N405 amino acids) (Influenza A virus …, UniProt W5RGA6)

| Binder | binding result [1] | binding result [2] | binding result [3] | binding result [4] | binding result [5] | binding result [6] |
| --- | --- | --- | --- | --- | --- | --- |
| B1 | binds | no binding |  |  |  |  |
| B2 | binds | no binding |  |  |  |  |
| B3 | binds | no binding |  |  |  |  |
| B4 | binds | no binding | binds | binds | binds | binds |
| B5 | binds | no binding |  |  |  |  |
